The text below walks through data of PMC6894054.

As a reminder, the Kd is the equilibrium constant for the complex coming apart.

The series has as its system ILF3 mouse-human dsRBM2 (SPR) (mouse-human (so in the source)). Nature of the series: SPR. To be noted: ELISA and SPR buffers not given in the material (SPR: Biacore T100, biotin-RNA on streptavidin chip); biopanning: TENT (10 mM Tris-HCl pH 8.0, 1 mM EDTA, 250 mM). Background: In an ELISA, binding on a coated surface is turned into a signal by an enzyme label.

The substance invSINEB2 of AS Uchl1 returned a Kd of 94.9 nM.
